Patent US20180250364A1, “Methods of Using Interleukin-10 for Treating Diseases and Disorders” (published 2018)

T1: mIL-10 receptors (R1 and R2) (mouse, UniProt Q61727)
T1 sequence 1: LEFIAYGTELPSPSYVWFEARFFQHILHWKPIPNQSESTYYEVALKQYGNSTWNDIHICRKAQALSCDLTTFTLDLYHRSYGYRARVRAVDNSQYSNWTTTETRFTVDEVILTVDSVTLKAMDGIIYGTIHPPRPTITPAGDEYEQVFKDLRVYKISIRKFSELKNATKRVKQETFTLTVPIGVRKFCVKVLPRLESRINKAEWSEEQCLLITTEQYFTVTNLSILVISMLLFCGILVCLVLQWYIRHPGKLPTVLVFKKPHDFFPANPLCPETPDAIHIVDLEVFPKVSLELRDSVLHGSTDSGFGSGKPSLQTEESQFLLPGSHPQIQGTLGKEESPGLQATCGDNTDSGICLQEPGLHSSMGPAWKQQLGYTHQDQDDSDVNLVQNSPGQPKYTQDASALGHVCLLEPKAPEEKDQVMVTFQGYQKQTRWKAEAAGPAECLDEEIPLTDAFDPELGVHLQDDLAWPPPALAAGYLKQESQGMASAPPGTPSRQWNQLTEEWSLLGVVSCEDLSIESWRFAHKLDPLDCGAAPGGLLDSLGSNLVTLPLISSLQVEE
T1 sequence 2: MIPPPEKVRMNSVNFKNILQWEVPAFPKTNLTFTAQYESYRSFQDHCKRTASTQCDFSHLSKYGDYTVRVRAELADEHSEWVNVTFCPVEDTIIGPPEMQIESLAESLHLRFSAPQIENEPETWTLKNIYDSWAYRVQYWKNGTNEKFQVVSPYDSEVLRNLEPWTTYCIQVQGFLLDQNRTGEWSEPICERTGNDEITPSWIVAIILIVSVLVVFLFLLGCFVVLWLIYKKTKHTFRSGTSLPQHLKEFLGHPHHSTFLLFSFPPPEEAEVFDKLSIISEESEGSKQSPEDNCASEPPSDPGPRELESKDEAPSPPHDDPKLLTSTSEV


What was measured:
[1] = target: T1, mIL-10 receptors (R1 and R2); assay: cell-based or functional assay
[2] = target: T1, mIL-10 receptors (R1 and R2); assay: cell-based or functional assay; remark: listed apart in the source

| EC50 (ng/mL) in MC/9 Assay [1] | MC/9 proliferation (Alamar Blue), specific activity [2] | Binder |
| --- | --- | --- |
| 0.571 ng/mL | – | Murine IL-10 (ligand) SRGQYSREDNNCTHFPVGQSHMLLELRTAFSQVKTFFQTKDQLDNILLTDSLMQDFKGYLGCQALSEMIQFYLVEVMPQAEKHGPEIKEHLNSLGEKLKTLRMRLRRCHRFLPCENKSKAVEQVKSDFNKLQDQGVYKAMNEFDIFINCIEAYMMIKMKS |
| 4.04 ng/mL | ~7 fold | PEG-mIL-10 (ligand, pegylated; prepared with the SC-PEG-12K linker; attachment residue not stated) SRGQYSREDNNCTHFPVGQSHMLLELRTAFSQVKTFFQTKDQLDNILLTDSLMQDFKGYLGCQALSEMIQFYLVEVMPQAEKHGPEIKEHLNSLGEKLKTLRMRLRRCHRFLPCENKSKAVEQVKSDFNKLQDQGVYKAMNEFDIFINCIEAYMMIKMKS |
